In the experiment the target is LFA-1 I domain I domain (Homo sapiens, UniProt P20701). In words: SPR.

The values below come from article PMC5662687 (2017).

B1: ICAM-1 (protein)
chain: QTSVSPSKVILPRGGSVLVTCSTSCDQPKLLGIETPLPKKELLLPGNNRKVYELSNVQEDSQPMCYSNCPDGQSTAKTFLTVYWTPERVELAPLPSWQPVGKNLTLRCQVEGGAPRANLTVVLLRGEKELKREPAVGEPAEVTTTVLVRRDHHGANFSCRTELDLRPQGLELFENTSAPYQLQTFVLPATPPQLVSPRVLEVDTQGTVVCSLDGLFPVSEAQVHLALGDQRLNPTVTYGNDSFSAKASVSVTAEDEGTQRLTCAVILGNQSQETLQTVTIYSFPAPNVILTKPEVSEGTEVTVKCEAHPRAKVTLNGVPAQPLGPRAQLLLKATPEDNGRSFSCSATLEVAGQLIHKNQTRELRVLYGPRLDERDCPGNWTWPENSQQTPMCQAWGNPLPELKCLKDGTFPLPIGESVTVTRDLEGTYLCRARSTQGEVTRKVTVNVLSPRYE
Usually Kd stands for the equilibrium constant for the complex coming apart. The low end stands for higher affinity, the high end for lower affinity. The molecule B1 came in with a Kd of 1.5 mM.
